Source: US20240383982A1 (Genmab, published 2024)

Legend:
[1] = target: T1, B7H3-IgV/B7H4-IgC; assay: flow cytometry, transiently transfected HEK cells, antibody at 10 µg/mL, MFI as % of the control antibody of the panel
T1 construct: also called chimeric molecule with the IgV domain of B7H3 and the IgC domain of B7H4
T1 full-length chimeric protein on cells: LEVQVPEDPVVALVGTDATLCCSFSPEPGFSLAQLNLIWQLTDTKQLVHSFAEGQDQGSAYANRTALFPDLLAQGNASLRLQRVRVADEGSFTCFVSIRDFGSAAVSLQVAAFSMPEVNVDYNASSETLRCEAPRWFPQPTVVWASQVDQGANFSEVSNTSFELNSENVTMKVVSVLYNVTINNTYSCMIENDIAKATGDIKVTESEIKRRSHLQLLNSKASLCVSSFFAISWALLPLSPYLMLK
Description: (§1) Expression constructs were prepared encoding human B7H4, human B7H3 (Uniprot accession no. Q5ZPR3-1; SEQ ID NO: 9), or a chimeric molecule containing the IgV domain of B7H3 and the IgC domain of B7H4 (B7H3-IgV/B7H4-IgC; SEQ ID NO: 11), or a chimeric molecule containing the IgV domain of B7H4 and the IgC domain of B7H3 (B7H4-IgV/B7H3-IgC; SEQ ID NO: 10). HEK cells were transiently transfected to express these constructs.
(§2) Cells (3×10⁴ cell/well) were incubated in polystyrene 96-well round-bottom plates (Greiner bio-one, cat. no. 650101) with serial dilutions of antibodies (range 0.0046 to 10 μg/mL in 3-fold dilution steps) in 50 μL PBS/0.1% BSA/0.02% azide (FACS buffer) at 4° C. for 30 min. After washing twice in FACS buffer, cells were incubated with secondary antibody at 4° C. for 30 min. As a secondary antibody, R-Phycoerythrin (PE)-conjugated goat-anti-human IgG F(ab′)₂ (1:500 in staining buffer; Jackson ImmunoResearch Laboratories, Inc., West Grove, PA, cat. no. 109-116-098) was used. Next, cells were washed twice in FACS buffer, re-suspended in 20 μL FACS buffer and analyzed on an iQue Screener (Intellicyt Corporation, USA).

[2] = target: T2, B7H3; assay: flow cytometry, transiently transfected HEK cells, MFI as % of IgG1-B7H3-BRCA84D
T2 construct: also called human B7H3
T2 full-length protein on cells: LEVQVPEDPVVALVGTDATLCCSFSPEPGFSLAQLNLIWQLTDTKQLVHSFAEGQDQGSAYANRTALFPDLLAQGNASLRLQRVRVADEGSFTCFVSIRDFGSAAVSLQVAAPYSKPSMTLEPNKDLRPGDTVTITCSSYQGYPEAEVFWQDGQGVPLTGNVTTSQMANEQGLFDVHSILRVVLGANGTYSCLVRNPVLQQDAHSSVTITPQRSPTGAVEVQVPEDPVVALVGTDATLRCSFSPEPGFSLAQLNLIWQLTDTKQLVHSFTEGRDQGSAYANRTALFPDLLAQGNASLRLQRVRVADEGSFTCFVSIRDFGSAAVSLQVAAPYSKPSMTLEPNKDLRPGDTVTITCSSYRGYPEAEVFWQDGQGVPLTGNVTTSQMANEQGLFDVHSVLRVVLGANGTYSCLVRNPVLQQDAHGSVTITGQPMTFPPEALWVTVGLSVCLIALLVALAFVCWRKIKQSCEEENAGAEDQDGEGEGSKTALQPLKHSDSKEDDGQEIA
Description: as §1, §2

[3] = target: T3, B7H4-IgV/B7H3-IgC; assay: flow cytometry, transiently transfected HEK cells, antibody at 10 µg/mL, MFI as % of the control antibody of the panel [continued) III]
T3 construct: also called chimeric molecule with the IgV domain of B7H4 and the IgC domain of B7H3
T3 full-length chimeric protein on cells: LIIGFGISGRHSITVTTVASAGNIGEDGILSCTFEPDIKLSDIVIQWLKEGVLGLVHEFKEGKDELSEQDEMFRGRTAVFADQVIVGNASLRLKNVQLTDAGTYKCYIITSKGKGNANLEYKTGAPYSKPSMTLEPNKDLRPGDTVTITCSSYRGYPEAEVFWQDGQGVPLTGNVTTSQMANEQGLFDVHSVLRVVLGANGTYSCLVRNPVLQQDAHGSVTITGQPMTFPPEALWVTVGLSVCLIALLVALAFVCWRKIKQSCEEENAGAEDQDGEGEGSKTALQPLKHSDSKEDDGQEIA
Description: as §1, §2

B1: bsIgG1-huCD3-FEALxB7H4-C3-FEAR (bispecific antibody)
heavy 1: not shown
light 1: not shown
heavy 2: EVQLVQSGAEVKKPGASVKVSCKASGYTFTNFWIHWVRQAPGQGLEWIGEIDPSDSYTNYNQKFKGRVTITRDTSTSTAYLELSSLRSEDTAVYYCAREITTVDYWGQGTLVTVSSASTKGPSVFPLAPSSKSTSGGTAALGCLVKDYFPEPVTVSWNSGALTSGVHTFPAVLQSSGLYSLSSVVTVPSSSLGTQTYICNVNHKPSNTKVDKRVEPKSCDKTHTCPPCPAPEFEGGPSVFLFPPKPKDTLMISRTPEVTCVVVAVSHEDPEVKFNWYVDGVEVHNAKTKPREEQYNSTYRVVSVLTVLHQDWLNGKEYKCKVSNKALPAPIEKTISKAKGQPREPQVYTLPPSREEMTKNQVSLTCLVKGFYPSDIAVEWESNGQPENNYKTTPPVLDSDGSFFLYSRLTVDKSRWQQGNVFSCSVMHEALHNHYTQKSLSLSPGK
light 2: DIQMTQSPSSLSASVGDRVTITCSATSSISYMHWYQQKPGKAPKGWIYDTSKLAHGVPSRFSGSGSGTDFTLTISSLQPEDFATYYCHQRRSYPFTFGQGTKVEIKRTVAAPSVFIFPPSDEQLKSGTASVVCLLNNFYPREAKVQWKVDNALQSGNSQESVTEQDSKDSTYSLSSTLTLSKADYEKHKVYACEVTHQGLSSPVTKSFNRGEC
notes: also called bslgG1-huCD3-FEALxB7H4-C3-FEAR
- binding result [1]: binds
- binding result [2]: no binding (tested: 10 µg/mL)

B2: bsIgG1-huCD3-FEALxB7H4-C2-FEAR (bispecific antibody)
heavy 1: not shown
light 1: not shown
heavy 2: EVQLVQSGAEVKKPGASVKVSCKASGYTFTSYWIGWVRQAPGQGLEWIGDIYPGGGYTNYNEKFKGRVTITRDTSTSTAYLELSSLRSEDTAVYYCARLDGSSYRGAMDSWGQGTLVTVSSASTKGPSVFPLAPSSKSTSGGTAALGCLVKDYFPEPVTVSWNSGALTSGVHTFPAVLQSSGLYSLSSVVTVPSSSLGTQTYICNVNHKPSNTKVDKRVEPKSCDKTHTCPPCPAPEFEGGPSVFLFPPKPKDTLMISRTPEVTCVVVAVSHEDPEVKFNWYVDGVEVHNAKTKPREEQYNSTYRVVSVLTVLHQDWLNGKEYKCKVSNKALPAPIEKTISKAKGQPREPQVYTLPPSREEMTKNQVSLTCLVKGFYPSDIAVEWESNGQPENNYKTTPPVLDSDGSFFLYSRLTVDKSRWQQGNVFSCSVMHEALHNHYTQKSLSLSPGK
light 2: DIQMTQSPSSLSASVGDRVTITCKASQGFNKYVAWYQQKPGKAPKLLIYYTSTLQPGVPSRFSGSGSGRDYTLTISSLQPEDFATYYCLQYGNLLYAFGQGTKVEIKRTVAAPSVFIFPPSDEQLKSGTASVVCLLNNFYPREAKVQWKVDNALQSGNSQESVTEQDSKDSTYSLSSTLTLSKADYEKHKVYACEVTHQGLSSPVTKSFNRGEC
notes: also called bslgG1-huCD3-FEALxB7H4-C2-FEAR
- binding result [3]: binds
- binding result [2]: no binding (tested: 10 µg/mL)
